Literature values, collected in PMC5430790.

How the values were obtained:
TβR-II (Homo sapiens) = TβR-II (Homo sapiens) (UniProt P37173)
TβR-I (Homo sapiens) = TβR-I (Homo sapiens) (UniProt P36897)
TβR-I (Homo sapiens), sequence (P36897 34-126): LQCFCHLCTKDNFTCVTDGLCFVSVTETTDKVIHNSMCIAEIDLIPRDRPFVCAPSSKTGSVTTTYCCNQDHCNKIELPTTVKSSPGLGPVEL

TGF-β1, sequence (P01137 279-390): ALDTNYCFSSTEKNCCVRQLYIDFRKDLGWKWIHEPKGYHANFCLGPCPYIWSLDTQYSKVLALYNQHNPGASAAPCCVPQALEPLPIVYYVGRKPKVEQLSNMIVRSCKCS
TβR-II (Homo sapiens), sequence (P37173 23-166): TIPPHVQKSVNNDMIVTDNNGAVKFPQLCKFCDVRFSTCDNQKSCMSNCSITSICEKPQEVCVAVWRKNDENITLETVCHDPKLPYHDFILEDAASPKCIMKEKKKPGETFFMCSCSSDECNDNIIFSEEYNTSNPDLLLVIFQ

Substance: TGF-β1 (from UniProt P01137)
- Kd (TβR-II (Homo sapiens)): 0.19 µM
- Kd (TβR-I (Homo sapiens)): 70 µM
